Laboratory results from patent publication US20140120543A1 (INSTITUTE GUSTAVE ROUSSY, published 2014).

Columns and labels:
[1] = target: T1, protein TRF2 (telomeric repeat-binding factor 2) (human, UniProt Q15554 1-542); experiment: proximity ligation assay (Duolink), ERCC1 detected with FL297 antibody
T1 construct: Endogenous protein of the human A549 cell line, inside fixed cells; also called encoded by the TERF2 gene
T1 sequence: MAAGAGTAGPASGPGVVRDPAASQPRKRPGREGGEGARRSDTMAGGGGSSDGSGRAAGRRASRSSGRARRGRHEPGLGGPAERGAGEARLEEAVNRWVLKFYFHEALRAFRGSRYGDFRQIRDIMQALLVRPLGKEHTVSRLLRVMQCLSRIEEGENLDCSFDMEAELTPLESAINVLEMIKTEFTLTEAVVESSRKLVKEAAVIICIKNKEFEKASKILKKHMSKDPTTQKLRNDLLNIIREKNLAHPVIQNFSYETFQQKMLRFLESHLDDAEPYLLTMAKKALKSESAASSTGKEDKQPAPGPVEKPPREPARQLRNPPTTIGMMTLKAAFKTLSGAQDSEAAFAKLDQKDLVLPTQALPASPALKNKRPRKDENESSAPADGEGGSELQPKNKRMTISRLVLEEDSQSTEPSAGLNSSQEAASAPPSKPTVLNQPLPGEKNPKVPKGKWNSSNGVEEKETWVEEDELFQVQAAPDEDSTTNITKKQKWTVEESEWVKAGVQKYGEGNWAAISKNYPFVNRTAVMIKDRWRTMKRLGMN
Method: (§1) ERCC1 was detected using FL297 antibody.
(§2) Protein interactions were studied using the Duolink II proximity ligation assays (PLA) kit (Olink, Uppsala, Sweden). Coverslips were processed according to the manufacturer's instructions. In brief, the cells were fixed with methanol, permeabilized with triton, stained with the primary antibodies, and then incubated with the secondary oligonucleotide-linked antibodies. The oligonucleotides were hybridized, ligated, amplified, and detected using a fluorescent probe.

[2] = target: T2, Fanconi anemia Group G protein FANC G (human, UniProt O15287 1-622); experiment: as above
T2 construct: Endogenous protein of the human A549 cell line, inside fixed cells; also called Fanconi anemia complementation group G
T2 sequence: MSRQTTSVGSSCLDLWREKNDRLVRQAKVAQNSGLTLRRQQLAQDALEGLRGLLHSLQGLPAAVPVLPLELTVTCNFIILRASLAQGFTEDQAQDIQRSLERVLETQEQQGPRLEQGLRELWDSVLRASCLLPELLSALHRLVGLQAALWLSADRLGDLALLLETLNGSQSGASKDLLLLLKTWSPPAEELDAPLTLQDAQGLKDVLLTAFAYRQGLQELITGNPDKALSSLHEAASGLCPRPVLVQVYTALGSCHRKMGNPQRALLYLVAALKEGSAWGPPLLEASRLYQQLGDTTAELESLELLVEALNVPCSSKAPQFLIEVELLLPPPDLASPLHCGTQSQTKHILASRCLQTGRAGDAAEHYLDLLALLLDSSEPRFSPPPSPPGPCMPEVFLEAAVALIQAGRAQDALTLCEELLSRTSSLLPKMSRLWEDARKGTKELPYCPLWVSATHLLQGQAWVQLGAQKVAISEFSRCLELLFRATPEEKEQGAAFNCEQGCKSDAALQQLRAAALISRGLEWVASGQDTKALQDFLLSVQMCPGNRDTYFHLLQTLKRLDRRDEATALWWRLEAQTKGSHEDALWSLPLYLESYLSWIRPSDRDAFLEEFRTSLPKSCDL
Method: as §1, §2

kinesin Eg5 = target: T3, kinesin Eg5 (human, UniProt P52732 1-1056); experiment: as above
T3 construct: Endogenous protein of the human A549 cell line, inside fixed cells; also called encoded by the KIF11 gene
T3 sequence: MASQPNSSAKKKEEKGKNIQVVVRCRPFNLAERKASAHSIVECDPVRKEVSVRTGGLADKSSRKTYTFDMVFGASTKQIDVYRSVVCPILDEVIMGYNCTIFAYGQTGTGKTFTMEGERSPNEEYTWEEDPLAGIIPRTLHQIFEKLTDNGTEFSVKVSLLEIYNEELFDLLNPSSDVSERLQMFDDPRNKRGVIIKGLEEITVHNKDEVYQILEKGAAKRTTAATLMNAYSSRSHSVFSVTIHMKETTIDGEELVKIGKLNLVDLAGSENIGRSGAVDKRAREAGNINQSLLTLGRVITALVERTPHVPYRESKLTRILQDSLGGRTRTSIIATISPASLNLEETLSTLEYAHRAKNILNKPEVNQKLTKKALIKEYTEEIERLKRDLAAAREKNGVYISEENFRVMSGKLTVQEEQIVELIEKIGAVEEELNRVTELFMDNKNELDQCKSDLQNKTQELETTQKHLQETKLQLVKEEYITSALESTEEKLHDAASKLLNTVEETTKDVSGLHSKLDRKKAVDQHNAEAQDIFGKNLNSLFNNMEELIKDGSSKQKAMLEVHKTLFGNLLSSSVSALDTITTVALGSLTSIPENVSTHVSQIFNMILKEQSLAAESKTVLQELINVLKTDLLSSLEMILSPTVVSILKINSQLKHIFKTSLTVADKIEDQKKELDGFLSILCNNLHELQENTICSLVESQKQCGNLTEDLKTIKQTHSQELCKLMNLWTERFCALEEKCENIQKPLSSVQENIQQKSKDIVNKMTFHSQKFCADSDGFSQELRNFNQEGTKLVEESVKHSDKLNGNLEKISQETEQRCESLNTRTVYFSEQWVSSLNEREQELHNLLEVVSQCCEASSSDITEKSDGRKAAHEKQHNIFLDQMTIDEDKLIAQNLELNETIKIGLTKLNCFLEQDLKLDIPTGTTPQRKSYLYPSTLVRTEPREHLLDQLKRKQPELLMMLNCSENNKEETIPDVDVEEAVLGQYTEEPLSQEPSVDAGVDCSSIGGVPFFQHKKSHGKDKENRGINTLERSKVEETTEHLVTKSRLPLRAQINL
Method: as §1, §2

[3] = target: T4, DNA repair endonuclease XPF (human, UniProt Q92889 1-916); experiment: proximity ligation assay (Duolink) in ERCC1-deficient A549 cells re-expressing one isoform
T4 construct: Endogenous protein of the human A549 cell line, inside fixed cells; also called encoded by the ERCC4 gene
T4 sequence: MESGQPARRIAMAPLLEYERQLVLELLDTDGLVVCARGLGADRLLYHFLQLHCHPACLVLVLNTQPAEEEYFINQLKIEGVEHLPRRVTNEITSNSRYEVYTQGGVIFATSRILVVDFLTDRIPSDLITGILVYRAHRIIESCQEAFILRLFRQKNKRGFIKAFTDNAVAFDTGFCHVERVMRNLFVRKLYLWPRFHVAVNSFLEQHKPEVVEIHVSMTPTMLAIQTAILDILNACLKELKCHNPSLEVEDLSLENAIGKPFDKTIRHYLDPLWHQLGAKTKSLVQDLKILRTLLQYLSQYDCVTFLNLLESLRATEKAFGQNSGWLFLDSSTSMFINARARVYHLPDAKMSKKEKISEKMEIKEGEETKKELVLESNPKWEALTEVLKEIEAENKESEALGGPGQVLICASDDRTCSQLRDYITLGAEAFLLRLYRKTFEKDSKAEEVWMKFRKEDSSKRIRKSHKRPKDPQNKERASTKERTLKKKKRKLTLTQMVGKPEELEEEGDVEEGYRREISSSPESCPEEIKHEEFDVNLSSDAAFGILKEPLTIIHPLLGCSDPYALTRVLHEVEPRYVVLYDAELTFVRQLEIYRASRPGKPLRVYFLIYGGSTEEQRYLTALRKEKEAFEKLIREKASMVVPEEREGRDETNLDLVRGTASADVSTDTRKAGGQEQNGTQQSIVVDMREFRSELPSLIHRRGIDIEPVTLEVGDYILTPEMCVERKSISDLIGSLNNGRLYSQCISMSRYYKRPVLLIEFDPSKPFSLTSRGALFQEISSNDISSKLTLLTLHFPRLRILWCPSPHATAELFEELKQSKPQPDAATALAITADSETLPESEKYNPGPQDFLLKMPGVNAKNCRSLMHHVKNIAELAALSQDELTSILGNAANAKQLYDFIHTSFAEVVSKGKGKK
Method: as §2
Using proximity ligation assays (PLA-Duolink) technology, we investigated the binding ability of ERCC1 isoforms with ERCC1 interacting proteins.

| Binder | binding result [1] | binding result [2] | binding result (kinesin Eg5) | binding result [3] |
| --- | --- | --- | --- | --- |
| ERCC1-202 isoform (isoform 202 of the ERCC1 protein) (other, Re-expressed in ERCC1-deficient A549 clone 216; Detected inside fixed, permeabilised cells by PLA, not on the cell surface) MDPGKDKEGVPQPSGPPARKKFVIPLDEDEVPPGVAKPLFRSTQSLPTVDTSAQAAPQTYAEYAISQPLEGAGATCPTGSEPLAGETPNQALKPGAKSNSIIVSPRQRGNPVLKFVRNVPWEFGDVIPDYVLGQSTCALFLSLRYHNLHPDYIHGRLQSLGKNFALRVLLVQVDVKDPQQALKELAKMCILADCTLILAWSPEEAGRYLETYKAYEQKPADLLMEKLEQDFVSRVTECLTTVKSVNKTDSQTLLTTFGSLEQLIAASREDLALCPGLGPQKARRLFDVLHEPFLKVP | binds | binds | binds |  |
| ERCC1-201 isoform (other, Re-expressed in ERCC1-deficient A549 clone 216; Detected inside fixed, permeabilised cells by PLA; also called isoform 201) MDPGKDKEGVPQPSGPPARKKFVIPLDEDEVPPGVAKPLFRSTQSLPTVDTSAQAAPQTYAEYAISQPLEGAGATCPTGSEPLAGETPNQALKPGAKSNSIIVSPRQRGNPVLKFVRNVPWEFGDVIPDYVLGQSTCALFLSLRYHNLHPDYIHGRLQSLGKNFALRVLLVQVDVKDPQQALKELAKMCILADCTLILAWSPEEAGRYLETYKAYEQKPADLLMEKLEQDFVSRVTECLTTVKSVNKTDSQTLLTTFGSLEQLIAASREDLALCPGLGPQKVRALGKNPRSWGKERAPNKHNLRPQSFKVKKEPKTRHSGFRL |  |  |  | no binding |
| ERCC1-203 isoform (other, Re-expressed in ERCC1-deficient A549 clone 216; Detected inside fixed, permeabilised cells by PLA; also called isoform 203) MDPGKDKEGVPQPSGPPARKKFVIPLDEDEVPPGVAKPLFRSTQSLPTVDTSAQAAPQTYAEYAISQPLEGAGATCPTGSEPLAGETPNQALKPGAKSNSIIVSPRQRGNPVLKFVRNVPWEFGDVIPDYVLGQSTCALFLSLRYHNLHPDYIHGRLQSLGKNFALRVLLVQVDVKDPQQALKELAKMCILADCTLILAWSPEEAGRYLETYKAYEQKPADLLMEKLEQDFVSRSLEQLIAASREDLALCPGLGPQKARRLFDVLHEPFLKVP |  |  |  | no binding |
| ERCC1-204 isoform (other, Re-expressed in ERCC1-deficient A549 clone 216; Detected inside fixed, permeabilised cells by PLA; also called isoform 204) MDPGKDKEGVPQPSGPPARKKFVIPLDEDEVPPGVRGNPVLKFVRNVPWEFGDVIPDYVLGQSTCALFLSLRYHNLHPDYIHGRLQSLGKNFALRVLLVQVDVKDPQQALKELAKMCILADCTLILAWSPEEAGRYLETYKAYEQKPADLLMEKLEQDFVSRVTECLTTVKSVNKTDSQTLLTTFGSLEQLIAASREDLALCPGLGPQKARRLFDVLHEPFLKVP |  |  |  | no binding |
